# Assay results from paper doi:10.1101/2023.03.23.533910 (bioRxiv, 2023).
# Target: the molecule itself
# Assay: native gel or EMSA
protein,measurement,value
"3xHA-tagged SNC1 (natural protein, Arabidopsis thaliana, UniProt O23530 1-1437, looked up) MMDTSKDDDMEIASSSGSRRYDVFPSFRGEDVRDSFLSHLLKELRGKAITFIDDEIERSRSIGPELLSAIKESRIAIVIFSKNYASSTWCLNELVEIHKCYTNLNQMVIPIFFHVDASEVKKQTGEFGKVFEETCKAKSEDEKQSWKQALAAVAVMAGYDLRKWPSEAAMIEELAEDVLRKTMTPSDDFGDLVGIENHIEAIKSVLCLESKEARIMVGIWGQSGIGKSTIGRALYSKLSIQFHHRAFITYKSTSGSDVSGMKLRWEKELLSEILGQKDIKIEHFGVVEQRLKQQKVLILLDDVDSLEFLKTLVGKAEWFGSGSRIIVITQDRQLLKAHEIDLIYEVEFPSEHLALTMLCRSAFGKDSPPDDFKELAFEVAKLAGNLPLGLSVLGSSLKGRTKEWWMEMMPRLRNGLNGDIMKTLRVSYDRLHQKDQDMFLYIACLFNGFEVSYVKDLLKDNVGFTMLTEKSLIRITPDGYIEMHNLLEKLGREIDRAKSKGNPGKRRFLTNFEDIHEVVTEKTGTETLLGIRLPFEEYFSTRPLLIDKESFKGMRNLQYLEIGYYGDLPQSLVYLPLKLRLLDWDDCPLKSLPSTFKAEYLVNLIMKYSKLEKLWEGTLPLGSLKEMNLRYSNNLKEIPDLSLAINLEELDLVGCKSLVTLPSSIQNATKLIYLDMSDCKKLESFPTDLNLESLEYLNLTGCPNLRNFPAIKMGCSDVDFPEGRNEIVVEDCFWNKNLPAGLDYLDCLTRCMPCEFRPEQLAFLNVRGYKHEKLWEGIQSLGSLEGMDLSESENLTEIPDLSKATKLESLILNNCKSLVTLPSTIGNLHRLVRLEMKECTGLEVLPTDVNLSSLETLDLSGCSSLRSFPLISTNIVWLYLENTAIEEIPSTIGNLHRLVRLEMKKCTGLEVLPTDVNLSSLETLDLSGCSSLRSFPLISESIKWLYLENTAIEEIPDLSKATNLKNLKLNNCKSLVTLPTTIGNLQKLVSFEMKECTGLEVLPIDVNLSSLMILDLSGCSSLRTFPLISTNIVWLYLENTAIEEIPSTIGNLHRLVKLEMKECTGLEVLPTDVNLSSLMILDLSGCSSLRTFPLISTRIECLYLQNTAIEEVPCCIEDFTRLTVLMMYCCQRLKTISPNIFRLTRLELADFTDCRGVIKALSDATVVATMEDHVSCVPLSENIEYIWDKLYRVAYLQEHFSFRNCFKLDRDARELILRSCFKPVALPGEEIPKYFTYRAYGDSLTVIVPQSSLSQNFLRFKACVVVEPLSKGKGFYPFLKVNVGFNGKQYQKSFSKDAELELCKTDHLFFCSFKFRSEDLPSKLNFNDVEFKFCCSNRIKECGVRLMYVSQEENNQQTTRSEKRMRMTSGTSEEDINLPYGLIVADTGLAALNMELSLGQGEPSSSTSLEGEALCVDYMITEEQDKGIPILFPVSGN",stoichiometry N,~4
